Measurements reported in the nanobody polyreactivity screen of Harvey et al. (2022).

Assay: yeast display, Sf9 membrane polyspecificity reagent, FACS + sequencing; frameworks hold sequencing errors
Procedure, shortened: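 Sorting gates, low and high (top ~1%), were placed on anti-HA fluorescence to track expression and on streptavidin fluorescence to track reagent binding. A clone's polyreactivity label is taken from the gate it came out of. The reagent was 10% biotinylated, detergent-solubilized Sf9 membrane, applied for 1 hour at 4 °C to galactose-induced yeast display cells.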

Row | Sequence | polyreactivity (PSR sort gate)
1 | QVQLQESGGGLVQAGGSLRLSCAVSGTIFFPLDMGWYRQAPGREREYVAAIAEGTSTYYADSVKGRFTISRDNAKNTVYPQMYSLNPEDTAVYYCAAYRSTPQQFHYWGQGTQVTVSS | high polyreactivity
2 | QVQLQESGGGLVQAGGSLRLSSAASGPISRRSTMGWYRQAPGKERELVTAITRGTNTNYADSVKGRFTISRDNAMNTEYLQMNSLKPEDTAVYYCAAYGVLKPSRGDAVFHRYWGQGTQVTVSS | low polyreactivity
3 | QVQLQESGGGLVQAGGSLRPLCAAGGTIFVSVNMRLYRHAPGEEREFVASITQGATTNYADSLIGRFTISRDNAKNTVYLLMNCQKPEDTEVYYCAVHESGGITFTYWGQGTQVTVSS | high polyreactivity
4 | QVQLQESGGGLVQAGGSLRPSCAASGSISDGVRMGWYRQAPGEEGELVATTVLGATTNYADSVKGRFTISRGNAKNTVYLLMTSLKAEATAVYYCAAPLRYDKGFSYWGQGTQVTVSS | low polyreactivity
5 | QVQLQESGGGLVQAGGSLRPSCAASGSISDRWWMGLYRQAPGKERESVAGINDGASTYYADSVKGRFTISCDNAKNTVYLQMNSLKPEDTAVYYCAVYVFITGCLNYWGQGTQVTVSS | high polyreactivity
6 | QVQLQESGGGLVQAGGSLRPSCAPSGSISDGDPMAWYRQAPGEERELVATTVLGATTNYADSVKGRFTISRGNAENTVYLERYWLKPVETAVYYCAAPLRYDKGFSYWGQGTQVTVSS | low polyreactivity
7 | QVQLQESGGGLVQAGGSLRQSCAASGYIFQPFYMGWYRQAPGKERELVAGISVGGNTYYADSVKGRFTISRDNAKNSVFLQMNSLKPEDTAVYYCAVQFVLQDKYVYWGQGTQVTVSS | low polyreactivity
8 | QVQLQESGGGLVQAGGSPRLSCAASDNIFPDSVMCWSRQAPGKERELVATIGFGATTNYADSVKGRFTISRDNAKNTVYLQMNSLKPEDTAVYYCAADPLNYEYFCYWGQGTQVTVSS | low polyreactivity
9 | QVQLQESGGGLVQAGGSQRLSCAASGTITVLYKMGRFRQAPGKEREFVASINYGTSTYYADSVKGRFTLSRDSAKNTVYLQMNSLKPEDTAVYYCAAAYRWQDVYRYWGQGTQVTVSS | low polyreactivity
10 | QVQLQESGGGLVQAGGSQRLTCAASGYIFYFQYMGWYRPAPGKEREFVAAISDGANTNYADSVKGRFTISRDNAKNTEYLQMNSLKPEDTAVYYCSVYADENYYYIYWGQGTQVTVSS | low polyreactivity
11 | QVQLQESGGGLVQAGGTLRLSCQASGSIFVSVTMGWYRQAPGKERELVASIGRGSTTNHADSVKGRFTISRDNAKNIVYLLMNSLKPEDTAVYYCAALESYGKYHGYWGQGTQVTVSS | low polyreactivity
12 | QVQLQESGGGMVQAGGSLRLSCAASGYISWADNMAWYRQAPGKERELVAGIGYGSTTYYADSVKGRFTISRDNAKNTAYLQMNSLKPEDTSVYYCAVGWYRDTAYKYWGQGTQVTVSS | low polyreactivity
13 | QVQLQESGGGMVQAGGSLRLSRATSGTISATKGMCRYRQAPGKERELVAGINYGGNTNYADNVKGRFTISRDNAKNTVYLQMNSLKPGDTAVYYCAAEPRGVTDLGYWGQGTQVTVSS | low polyreactivity
14 | QVQLQESGGGQVQAGGSLRLSCAASGNNSVTGFMGRYRQAPGKERELVASIGIGGTTYYADSVKGRFSISRDNAKNTVYLQMNSLKPEDTAVYYCAARYLYYAYSYWGQGTQVTVSS | low polyreactivity
15 | QVQLQESGGGQVQAGGSLRLSCAASGTISDSGLMGWYRQAPGKERELVAGISSGGITNYADSVKGRFTISRDNAKNTVYLQMNILKPEDTAVYWGQGTQVTVSI | low polyreactivity
16 | QVQLQESGGGQVQAGGSLRLSCAASGYISTHYFMGWYRQAPGKDREFVAGISNGSITNYADSVKGRFTISRDNARNTVYLQMNSLKPEDTAVYYGAAYDWTYVRFGYWGQGTQVTVSG | high polyreactivity
17 | QVQLQESGGGQVQAGGSLRLSCAPSGYISSWYPKGWYRQAPGKEPEFVATIAPGATNYYADSVKGRFTISRDYAKNTVYQQMNSLKPEDTAVYYCAVVSNGRRERYYYWGQGTQVTVSS | low polyreactivity
18 | QVQLQESGGGQVQAGGSLRLSCEASGTIFLYAFMGWYRQAPGKERELVAAIDVGTTTNYADSVKGRFTISRDNAKNTVYLQMNSLKPEDTAVYYCAANLGYLDDLGYWGQGTQVTVSS | low polyreactivity
19 | QVQLQESGGGQVQAGGSLRPSCAASGSISDRVPMGWYRQAPGEERELVATTVLGATTNYADSVKGRFTISRGNAKNTVYLQMNSLKPEETAVYYCAAPLRYDKGFSYWGEGTQVTVSS | low polyreactivity
20 | QVQLQESGGGVQAGGSLRLSCAASGSISAPILMGWYRQAPGKERELVAGIGGGANTYYADSVKGRFTFSRDNAKYTVYLQMYSLKPEDTAVYYCAAGDYYWTNFGYWGQGTQVTASS | high polyreactivity
21 | QVQLQESGGLVQAGGLRLSCAASGYVSYQEAMGWYRQAPGKEREIVATISFGANTNYADSVKGRFTISRDNAKNTVYLQMNSLKPEDTAVYYCAAESLFDVYYGYWGQGTQVTVSS | low polyreactivity
22 | QVQLQESGGLVQAGGLRLSCEASGSVSYQEGMGWYRQATGKERELVATISFGANTNYADSVKGRFTISRDNAKNTVYLQMNSLKTEDTAVFYCAADSLFDDYYGYWGQGTQVTVSS | low polyreactivity

Row | Sequence | polyreactivity (PSR sort gate)
23 | QVQLQESGGRLVQAGGSLRLSCAASGNIFPTVSMGWYRQAPGKDREFVVTIDPGSNTYYADSAKGRFTISRDNAQNTVYLQMNSPKPEDTAVYYCAVVFADWATYGYWGQGTQVTVSS | high polyreactivity
24 | QVQLQESGGRLVQAGGSLRLSCAATGTIFTERFMGWYRQAPGKERELVAVISPGTSTNYADSVKGRFTISRDNAKNTVYLQMNSLKPEDTAVYYCAADWSTGNTLPYWGQGTQVTVSS | high polyreactivity
25 | QVQLQESGGRLVQSCGTLRLSCAASGTITVLYKIGRFRQAPGKEREFVASINYGTSTYYADSVKGRFTVSRDSAKNTVYLQMNSLKPEDTAVYYCAAAYRWQDVYRYWVQGTQVTVSS | low polyreactivity
26 | QVQLQESGGSLVQAGGSLRLSCSASGNILVLPHGLVSPGAERELVATITGGSITYYADSEKGRFTISRDNAKNTVYLQMNSLKPGDTAVYYCAVINIYHRPHPYWGQGTLVTVSS | high polyreactivity
27 | QVQLQESGGVLMQAGGNLRLSFPASGYISTHYDMDWYRQAPGKERELVARIDDGAITNYADSVKGRFTISRDNAKNTVYLQMNSLKPEDTAVYYCAVYYGDDYYHDYWGQGTQVTVSS | low polyreactivity
28 | QVQLQESGGVQAGGSLRLSCAASGYISRSDVMGWYRQAPGKERELVATINNGTITYYADSVKGRFTISRDNATNTVYLQMNSLKPEDTAVHYCAVVQSDTDSLYYWGQGTQVTVSS | low polyreactivity
29 | QVQLQESGGVQAGGSLRLSSAASSYISRSDVMGWYRQAPGKERELVATINNGTITYYADSVKGRFTISRDNAKNTVYLQMNSLKPEDTAVHYFAVVQSDTDSLYYWGHGTQVTVSS | low polyreactivity
30 | QVQLQESGRGLVQAGGSLRLSCAASGSISILQSMGWYRQAPGKERELVAGINWGATTYYADSVKGRLTTSRDYAKNTVYLQMNSLKPEDTAVYYCAVPTYYTYPLLYWGQGTQVTVSS | low polyreactivity
31 | QVQLQESGRRPGAAGGSPRISCAASGYIFWVAVMGRYRQAPGKDRELVASIGFGCTTYYADSVKCRFTISRDNAKNSVYLQMISLKPEDTAVYYCAAPHYDWGELDYWGQGTQVPVSS | low polyreactivity
32 | QVQLQESGRRPGAAGGSPRMSCAASGNIFWVAVMGRYRQAPGKERELVASIGFGCTTYYADSVKCRFTISRDNAKNTVYLQMISLKPEDTAVYYCAAPHYDWGEIDYWGQGTQVPVSS | low polyreactivity
33 | QVQLQESGRRPGAAGGSPRMSCAASGNIFWVAVMGRYRQAPGKERELVASIGFGCTTYYADSVKCRFTISRDNAKNTVYLQMISLKPEDTAVYYCAAPHYDWGELDYWGQGTQVPVSS | low polyreactivity
34 | QVQLQESGRRPGAAGGSPRMSCAASGNIFWVAVMGRYRQEPGQERELVASIGFGCTTYYADSVKCRFTISRDNAKNTVYLQMISLKPEDTAVYYCAAPHYDWGELDYWGQGTQVPVSS | low polyreactivity
35 | QVQLQESGSGLVQAGGSLRLGCAASGNISDAGYMGWYRQAPGKEREFVAAIAAGSNTNYADSVKGRFTISRDNAKNTVYLQLNSLKPEVTAVFYCAVASYARVQYEYWGQGTQVTVNS | low polyreactivity
36 | QVQLQESGSGLVQAGGSLRLSCAASGYISLGDNMGWYRQAPGKDREFGATISVGGITYYVDSVKGRFTISRDIAKNTVYLQMNSLTPEDTAVYYCAALEIYYFRYYYWGQGTQVTVSS | low polyreactivity
37 | QVQLQESGSGLVQAGGSLRLSSAASGNISHYNDMGWYRQAPGKEREPVATINSGSITYYADSVKGRFTISRDNAKNTVYLQMNSLKPEDTAVYYCAVTQHGYFYLDYWGQGTQVTVSS | high polyreactivity
38 | QVQLQESGVGLVQAGGSLGCAASGNISTRSEMGWYRQAPGKEREFVATINSGGITNYADSVKGRFTISRDNAKNTVYLRMNSLKPEDTAVYYREVYGYFSDPYDYWGQGTQVTVSS | low polyreactivity
39 | QVQLQESGVGLVQAGGSLRLSCAASGTIFRISDMGSYRQAPGKEREFVAAITYGANTYYADSGKGRFTISRDNAKNTVYLQMNSLKPEDTAVYYWAVPPVKETILDYWGQGTQVTVSS | low polyreactivity
40 | QVQLQESRGGLLQAGGSLCLSCAASGNIIFDGDMRWYRQAPGKEREFVAAINPGGSAYYADSVKGRLPLAAITHTVYLQLNSLNPPDTAVYYCAAKLFDVYGYYYWGQGTHVTVSS | low polyreactivity
41 | QVQLQESRGGLVQAGGSLCLSCAASGTIFIDGDMGWYRQAPGKEREFVAAIKPGGSAYYADSVKGRLPLAAITHTVYLQMNSLKPEDTAVYYCAAKLFDVYGYYYWGQGTQVTLSS | low polyreactivity
42 | QVQLQESSGGLVQAGGSLRMSCAASGTIFNFHIMGWYRQAPGKEREFVAAISYGTSTYYADSVKGRFTISRDNAKNTVYLQMNSQKPEDTAVYYCAVFDYLEVYCWYWGQGTQVTVSS | low polyreactivity
43 | QVQLQESVGGLVQACGSLRLSCAASGYIFSHQYMGWYRQAPGKERELVASISPGATTNYADSVKGRFTISRDNAKNTVYLQMNSLKPEDTAVYYYAVYQILDRRLSYWGQGTQVTVSC | high polyreactivity
44 | QVQLQESVGGLVQAGGSLRLSCAASGNIFPTDRMGWYRQAPGKELEFVATISHGGSTNYADSVKGRFTISRDNAKNTVYLQMNSLKPEDTAVYYCAVWSLGRWRHYYWGQGTQVTVRS | low polyreactivity
